Publication PMC7564285
pKd: −log10 of the molar value.

Tests used:
[1] = biological target: M11 F48A (murine γ-herpesvirus 68) (UniProt P89884); assay: ITC; BH3D peptide titrated into M11 protein (25 injections of 2 μL); 14 °C; 50 mM HEPES pH 7.5, 150 mM NaCl, 2 mM βME; co-dialyzed overnight; independent model
[2] = biological target: M11 A63K (murine γ-herpesvirus 68) (UniProt P89884); assay: as above
[3] = biological target: M11 Y56A (murine γ-herpesvirus 68) (UniProt P89884); assay: as above
[4] = biological target: murine γ-herpesvirus 68 vBCL2 M11, wild type (murine γ-herpesvirus 68) (UniProt P89884); assay: as above
[5] = biological target: γHV68 M11 L103A (murine γ-herpesvirus 68) (UniProt P89884); assay: ITC; Beclin 1 BH3D peptide titrated into M11 protein, 25 injections of 2 μL, 14 °C; 50 mM HEPES pH 7.5, 150 mM NaCl, 2 mM βME; independent model
[6] = biological target: γHV68 M11 L128A (murine γ-herpesvirus 68) (UniProt P89884); assay: as above
[7] = biological target: γHV68 M11 Y97A (murine γ-herpesvirus 68) (UniProt P89884); assay: as above
[8] = biological target: γHV68 M11 F79A (murine γ-herpesvirus 68) (UniProt P89884); assay: as above
[9] = biological target: γHV68 M11 M119A (murine γ-herpesvirus 68) (UniProt P89884); assay: as above

Beclin 1 BH3D peptide
Ka [1]: 158000 M⁻¹ | pKd [1]: 4.20 | dH [1]: -8.63 kcal/mol | Ka [2]: 160000 M⁻¹ | pKd [2]: 5.19 | dH [2]: -9.49 kcal/mol | Ka [3]: 300000 M⁻¹ | pKd [3]: 5.47 | dH [3]: -9.03 kcal/mol | Ka [4]: 1.2e+06 M⁻¹ | pKd [4]: 6.08 | dH [4]: -12.8 kcal/mol | Ka [5]: 417000 M⁻¹ | pKd [5]: 5.62 | Ka [6]: 1.12e+06 M⁻¹ | pKd [6]: 6.05 | Ka [7]: 920000 M⁻¹ | pKd [7]: 5.95 | Ka [8]: 4.6e+06 M⁻¹ | pKd [8]: 5.66 | Ka [9]: 527000 M⁻¹ | pKd [9]: 5.72
